# Assay results reported in publication PMC10349882, “High resolution structures define divergent and convergent mechanisms of archaeal proteasome activation” (Communications Biology, 2023).
# B1: T20S α subunit, wild type (natural protein, Thermoplasma acidophilum)
# chain: MQQGQMAYDRAITVFSPDGRLFQVEYAREAVKKGSTALGMKFANGVLLISDKKVRSRLIEQNSIEKIQLIDDYVAAVTSGLVADARVLVDFARISAQQEKVTYGSLVNIENLVKRVADQMQQYTQYGGVRPYGVSLIFAGIDQIGPRLFDCDPAGTINEYKATAIGSGKDAVVSFLEREYKENLPEKEAVTLGIKALKSSLEEGEELKAPEIASITVGNKYRIYDQEEVKKFL
# notes: Proteasome subunit alpha, Thermoplasma acidophilum; Subunit of m1, written alone for the subunit-subunit rows of the structures; also called proteasome α-subunit
# B2: T20S α subunit L81Y (natural protein, Thermoplasma acidophilum)
# chain: MQQGQMAYDRAITVFSPDGRLFQVEYAREAVKKGSTALGMKFANGVLLISDKKVRSRLIEQNSIEKIQLIDDYVAAVTSGYVADARVLVDFARISAQQEKVTYGSLVNIENLVKRVADQMQQYTQYGGVRPYGVSLIFAGIDQIGPRLFDCDPAGTINEYKATAIGSGKDAVVSFLEREYKENLPEKEAVTLGIKALKSSLEEGEELKAPEIASITVGNKYRIYDQEEVKKFL
# notes: Proteasome subunit alpha, Thermoplasma acidophilum; α subunit of the mutant 20S whose cryo-EM structure is solved here; also called T20S-αL81Y; T20S L81Y
# What was measured:
# [1] = target: the molecule itself; assay: cryo-EM structure; WT T20S, 0.5 mg/mL in 50 mM Tris pH 7.4, 150 mM NaCl; D7 symmetry; closed gate
# [2] = target: the molecule itself; assay: cryo-EM structure; T20S-αL81Y, 0.5 mg/mL in 50 mM Tris pH 7.4, 150 mM NaCl; D7 symmetry; partially open gate
# [3] = target: B2; assay: as above; settings: both partners purified
# [4] = target: B1; assay: cryo-EM structure; WT T20S, 0.5 mg/mL in 50 mM Tris pH 7.4, 150 mM NaCl; D7 symmetry; closed gate; settings: both partners purified
Binder,binding result [1],binding result [2],binding result [3],binding result [4]
B1,binds,,,
B2,,binds,,
"T20S β subunit (natural protein, Thermoplasma acidophilum, UniProt P28061 9-211, looked up, Proteasome subunit beta, Thermoplasma acidophilum; Subunit of m1, written alone for the subunit-subunit rows of the structures) TTTVGITLKDAVIMATERRVTMENFIMHKNGKKLFQIDTYTGMTIAGLVGDAQVLVRYMKAELELYRLQRRVNMPIEAVATLLSNMLNQVKYMPYMVQLLVGGIDTAPHVFSIDAAGGSVEDIYASTGSGSPFVYGVLESQYSEKMTVDEGVDLVIRAISAAKQRDSASGGMIDVAVITRKDGYVQLPTDQIESRIRKLGLIL",,binds,binds,binds
